Patent publication US20150315278A1 (Chugai, published 2015)
Where a chain is given by its changes, count along the chain named. Names may count otherwise. Each block holds one binder with its values, some of them ahead of it.

Key:
[1] = biological target: T1, soluble GPC3 core polypeptide (Homo sapiens (Human), UniProt P51654 25-563); experiment: competitive ELISA against biotinylated H0L0 on immobilized soluble GPC3 core (FIG. 4)
T1 construct: Immobilized on the ELISA plate at 1 ug/mL; also called glypican 3 antigen; glypican 3
T1 sequence (P51654 other isoform, or with tags, fused parts or gaps limits assumed): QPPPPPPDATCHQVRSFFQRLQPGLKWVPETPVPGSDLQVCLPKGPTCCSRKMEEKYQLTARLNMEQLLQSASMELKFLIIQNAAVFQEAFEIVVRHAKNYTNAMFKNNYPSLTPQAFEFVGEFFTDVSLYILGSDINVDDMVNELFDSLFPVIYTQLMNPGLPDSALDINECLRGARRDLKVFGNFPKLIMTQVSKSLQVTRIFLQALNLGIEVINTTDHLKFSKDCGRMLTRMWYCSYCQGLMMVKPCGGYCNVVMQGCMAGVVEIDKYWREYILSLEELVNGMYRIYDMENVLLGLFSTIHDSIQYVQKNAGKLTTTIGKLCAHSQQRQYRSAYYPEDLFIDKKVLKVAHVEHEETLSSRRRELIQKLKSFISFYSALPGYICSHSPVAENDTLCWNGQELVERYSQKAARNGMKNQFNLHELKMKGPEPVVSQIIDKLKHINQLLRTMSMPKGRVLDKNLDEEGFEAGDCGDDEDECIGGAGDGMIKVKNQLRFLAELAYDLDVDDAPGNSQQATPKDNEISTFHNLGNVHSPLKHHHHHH
Protocol: (§1) The H0L0 antibody and its point mutation-modified antibodies purified in (1) was evaluated by competitive ELISA. 100 μL of the soluble GPC3 core polypeptide (SEQ ID NO: 13) at 1 μg/mL was added to each well of a 96-well plate. The soluble GPC3 core polypeptide was immobilized on the plate by allowing the plate to stand overnight at 4° C. The soluble GPC3 core polypeptide immobilized on the plate was washed 3 times with a washing buffer using Skan WASHER400 (Molecular Devices); and blocked with 200 μL blocking buffer at 4° C. for at least 30 min. The blocked plate on which soluble GPC3 core polypeptide was immobilized was then washed 3 times with washing buffer using the Skan WASHER400. Subsequently, each well of the plate received 200 μL of a mixture containing 100 μL of biotinylated H0L0 antibody (final concentration=0.3 μg/mL) and 100 μL of the H0L0 antibody or its point mutation-modified antibody (at various concentrations). The H0L0 antibody was biotinylated using Biotin Labeling Kit (Roche) according to the instructions provided with the kit. The plate was left stand for 1 hour at room temperature, then washed 5 times with washing buffer using the Skan WASHER400 (Molecular Devices). […] The absorbance at 405 nm of the reaction solution in each well was measured using Benchmark Plus (BIO-RAD), with the control absorbance at 655 nm.

[2] = biological target: T1, soluble GPC3 core polypeptide; experiment: competitive ELISA against biotinylated H0L0 on immobilized soluble GPC3 core (FIG. 14)
Protocol: The H0L0 antibody and its point mutation-modified antibodies purified in (1) was evaluated by competitive ELISA. 100 μL of the soluble GPC3 core polypeptide (SEQ ID NO: 13) at 1 μg/mL was added to each well of a 96-well plate. The soluble GPC3 core polypeptide was immobilized on the plate by allowing the plate to stand overnight at 4° C. The soluble GPC3 core polypeptide immobilized on the plate was washed 3 times with a washing buffer using Skan WASHER400 (Molecular Devices); and blocked with 200 μL blocking buffer at 4° C. for at least 30 min. The blocked plate on which soluble GPC3 core polypeptide was immobilized was then washed 3 times with washing buffer using the Skan WASHER400. Subsequently, each well of the plate received 200 μL of a mixture containing 100 μL of biotinylated H0L0 antibody (final concentration=0.3 μg/mL) and 100 μL of the H0L0 antibody or its point mutation-modified antibody (at various concentrations). The H0L0 antibody was biotinylated using Biotin Labeling Kit (Roche) according to the instructions provided with the kit. The plate was left stand for 1 hour at room temperature, then washed 5 times with washing buffer using the Skan WASHER400 (Molecular Devices). 100 μL goat anti-streptavidin alkaline phosphatase (ZYMED), diluted 20,000× with substrate buffer, was added to each well, and the resulting plate was left stand for 1 hour at room temperature, and then washed 5 times with washing buffer using the Skan WASHER400. Phosphatase Substrate (Sigma) was prepared at 1 mg/mL in the substrate buffer, added at 100 μL per well for 1 hour. The absorbance at 405 nm of the reaction solution in each well was measured using Benchmark Plus (BIO-RAD), with the control absorbance at 655 nm.
The binding activity to the antigen of each constant region pI modified antibody was measured using the method described in Example 1 (FIG. 14).

[3] = biological target: T1, soluble GPC3 core polypeptide; experiment: competitive ELISA against biotinylated H0L0 on immobilized soluble GPC3 core (FIG. 10)
Protocol: as §1, with “kit.” for “kit. The plate was left stand for 1 hour at room temperature, then washed 5 times with washing buffer using the Skan WASHER400 (Molecular Devices).”
The binding activity to the antigen glypican 3 of each point mutation pI modified antibody was measured using the method described in Example 1 (FIG. 10).

[4] = biological target: T1, soluble GPC3 core polypeptide; experiment: competitive ELISA against biotinylated H0L0 on immobilized soluble GPC3 core (FIG. 5)
Protocol: as §1

[5] = biological target: T1, soluble GPC3 core polypeptide; experiment: competitive ELISA against biotinylated H0L0 on immobilized soluble GPC3 core (FIG. 6)
Protocol: as §1

B1: H15L4 antibody (antibody, V domains shown)
VH: QVQLVQSGAEVKKPGASVKVSCKASGYTFTDYEMHWIRQPPGQGLEWIGAIDPKTGDTAYSQKFKGRVTLTADKSTSTAYMELSSLTSEDTAVYYCTRFYSYTYWGQGTLVTVSS
VL: DIVMTQSPLSLPVTPGEPASISCRSSQSLVHSNRNTYLHWYQQKPGQAPRLLIYKVSNRFSGVPDRFSGSGSGTDFTLKISRVEAEDVGVYYCSQNTHVPPTFGQGTKLEIK
notes: Point-mutation modified form of H0L0
binding result [1]: binds

B5: pH7pL14 antibody (antibody, V domains shown)
VH: B1 VH with K19T, Q43E, Q62E, K63S, K65Q, G66D
VL: B1 VL with R24Q, S25A, Q27E, Q42L, A48S, R50Q
binding result [3]: binds

B6: Hspu2.2Lspu2.2 (Hu2.2Lu2.2) antibody (antibody, V domains shown)
VH: B1 VH with Q43K, D52N, Q107R
VL: B1 VL with E17Q, S25A, Q27R, Q105R
notes: Raised-pI variant; Hspu2.2 = H15 + Q43K, D52N, Q107R; Lspu2.2 = L4 + E17Q, Q27R, Q105R, S25A
binding result [4]: binds

B7: Hspd1.8Lspd1.6 (Hd1.8Ld1.6) antibody (antibody, V domains shown)
VH: B1 VH with K19T, Q43E, K63S, K65Q, G66D
VL: B1 VL with S25A, Q27E, K79T, R82S, V83L, E84Q
notes: Lowered-pI variant; Hspd1.8 = H15 + K19T, Q43E, K63S, K65Q, G66D; Lspd1.6 = L4 + Q27E, KISRVE(79-84) to TISSLQ, S25A
binding result [5]: binds

B8: humanized H0L0 antibody (antibody, V domains shown)
VH: B1 VH with I37V, P40A, I48M, I51L
VL: B1 VL with I2V, Q42L, A48S, R50Q
notes: the light chain constant region is not specified; also called humanized GC33 antibody
binding result [2]: binds

Continued, values first:

binding result [2]: binds
B2: pH7pL16 antibody (antibody, IgG1, V domains shown)
VH: B1 VH with K19T, Q43E, Q62E, K63S, K65Q, G66D
VL: B1 VL with R24Q, S25A, Q27E, Q42L, A48S, R50Q, L109V, K112E
notes: Variable regions only

binding result [2]: binds
B3: pH7M85pL16 antibody (antibody, human IgG1, V domains shown)
VH: B1 VH with K19T, Q43E, Q62E, K63S, K65Q, G66D
VL: B1 VL with R24Q, S25A, Q27E, Q42L, A48S, R50Q, L109V, K112E
notes: its constant region is not specified; also called pH7M85pL6 [sic]

binding result [2]: binds
B4: H0M85L0 antibody (antibody, human IgG1, V domains shown)
VH: B1 VH with I37V, P40A, I48M, I51L
VL: B1 VL with I2V, Q42L, A48S, R50Q
notes: its constant region is not specified
